Test results: PMC8054479 (Nature, 2020)

B1: C9orf72 (natural protein)
chain: MSTLCPPPSPAVAKTEIALSGKSPLLAATFAYWDNILGPRVRHIWAPKTEQVLLSDGEITFLANHTLNGEILRNAESGAIDVKFFVLSEKGVIIVSLIFDGNWNGDRSTYGLSIILPQTELSFYLPLHRVCVDRLTHIIRKGRIWMHKERQENVQKIILEGTERMEDQGQSIIPMLTGEVIPVMELLSSMKSHSVPEEIDIADTVLNDDDIGDSCHEGFLLNAISSHLQTCGCSVVVGSSAEKVNKIVRTLCLFLTPAERKCSRLCEAESSFKYESGLFVQGLLKDSTGSFVLPFRQVMYAPYPTTHIDVDVNTVKQMPPCHEHIYNQRRYMRSELTAFWRATSEEDMAQDTIIYTDESFTPDLNIFQDVLHRDTLVKAFLDQVFQLKPGLSLRSTFLAQFLLVLHRKALTLIKYIEDDTQKGKKPFKSLRNLKIDLDLTAEGDLNIIMALAEKIKPGLHSFIFGRPFYTSVQERDVLMTF
B2: WDR41 (WD repeat protein 41) (natural protein)
chain: MLRWLIGGGREPQGLAEKSPLQTIGEEQTQNPYTELLVLKAHHDIVRFLVQLDDYRFASAGDDGIVVVWNAQTGEKLLELNGHTQKITAIITFPSLESCEEKNQLILTASADRTVIVWDGDTTRQVQRISCFQSTVKCLTVLQRLDVWLSGGNDLCVWNRKLDLLCKTSHLSDTGISALVEIPKNCVVAAVGKELIIFRLVAPTEGSLEWDILEVKRLLDHQDNILSLINVNDLSFVTGSHVGELIIWDALDWTMQAYERNFWDPSPQLDTQQEIKLCQKSNDISIHHFTCDEENVFAAVGRGLYVYSLQMKRVIACQKTAHDSNVLHVARLPNRQLISCSEDGSVRIWELREKQQLAAEPVPTGFFNMWGFGRVSKQASQPVKKQQENATSCSLELIGDLIGHSSSVEMFLYFEDHGLVTCSADHLIILWKNGERESGLRSLRLFQKLEENGDLYLAV

Target: T1, SMCR8 (Smith-Magenis syndrome chromosome region, candidate 8) (human, UniProt Q8TEV9 1-937)
T1 sequence: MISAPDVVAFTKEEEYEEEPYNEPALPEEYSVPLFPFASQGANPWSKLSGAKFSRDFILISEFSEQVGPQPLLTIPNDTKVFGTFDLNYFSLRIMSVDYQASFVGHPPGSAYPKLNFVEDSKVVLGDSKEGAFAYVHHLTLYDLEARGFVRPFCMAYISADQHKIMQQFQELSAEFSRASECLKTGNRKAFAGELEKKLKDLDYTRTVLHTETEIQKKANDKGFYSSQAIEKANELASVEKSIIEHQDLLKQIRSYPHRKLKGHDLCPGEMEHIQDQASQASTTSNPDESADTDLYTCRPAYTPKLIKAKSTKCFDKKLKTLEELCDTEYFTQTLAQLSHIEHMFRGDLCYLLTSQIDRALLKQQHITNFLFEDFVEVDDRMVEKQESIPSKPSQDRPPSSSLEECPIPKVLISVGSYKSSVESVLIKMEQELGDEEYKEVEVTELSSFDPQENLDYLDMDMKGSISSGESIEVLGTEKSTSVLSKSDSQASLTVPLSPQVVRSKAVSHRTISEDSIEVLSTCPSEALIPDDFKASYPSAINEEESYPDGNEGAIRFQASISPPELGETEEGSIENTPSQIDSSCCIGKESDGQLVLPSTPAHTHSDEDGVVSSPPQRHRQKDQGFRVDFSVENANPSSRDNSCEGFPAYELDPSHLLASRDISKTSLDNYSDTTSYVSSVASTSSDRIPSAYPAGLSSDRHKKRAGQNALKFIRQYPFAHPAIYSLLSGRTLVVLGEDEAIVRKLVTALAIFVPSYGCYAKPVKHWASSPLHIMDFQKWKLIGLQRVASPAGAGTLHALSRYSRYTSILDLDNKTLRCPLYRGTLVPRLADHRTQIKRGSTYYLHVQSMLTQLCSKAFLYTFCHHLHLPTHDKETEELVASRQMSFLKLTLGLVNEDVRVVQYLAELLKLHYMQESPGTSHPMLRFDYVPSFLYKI
Test: cryo-EM structure

Row | Binder | binding result
1 | B1 | binds
2 | B2 | binds
